{
  "source": "paper PMC10344914",
  "about": "“Discovery and mechanism-guided engineering of BHET hydrolases for improved PET recycling and upcycling” (Nature Communications, 2023)",
  "key": {"[1]": {"substrate": "O=C(OCCO)c1ccc(C(=O)OCCO)cc1", "experiment": "purified protein", "assay_type": "biochemical, Chryseobacterium sp. PET-29", "details": "50 mM potassium phosphate (Na2HPO4-NaH2PO4), pH 7.5, 30 °C, BHET 0.8-15 mM"}, "[2]": {"substrate": "O=C(OCCO)c1ccc(C(=O)OCCO)cc1", "experiment": "purified protein", "assay_type": "biochemical, Bacillus subtilis", "details": "50 mM potassium phosphate (Na2HPO4-NaH2PO4), pH 7.5, 30 °C, BHET 0.8-15 mM"}},
  "data": [
    {"protein": "ChryBHETase (Chryseobacterium sp. PET-29) (protein, catalytic triad S194-E310-H379; V66-K76 barrier) MTTQQHKKIHTFHTSFGTIPALKGNGVIRAKSIRYARSQRFKKPEPLPYPEHDEIPDKTPVCPQNVSPLLDRLIQKTDVEQFEPDESPQFLTITRPEHFNENEKLPVIVWIHGGSYEIGCGDLPTSDPSVWVKEQHIIVVSVSYRLGLFGFLGGSEERPANLGLYDMIAALQWIKQYIRDFGGDPENITLFGQSSGGDAIAHLMISEETENLFRHVIIHSAPLGFRINRQKMSHEFFLKTDILKDEPDALKMVAGYRTFLPSFRKYGLKTSMPFCTQYGHPPLCQEEETMPNWKQNAKKYDVLIGSNQDETAFYVKTSQTGIYTYLPQRILNKIVRKTTASIYEKPAKAFAENLAAGGGNVYQFVIRSTLKSNNIGASHCVDLPLLFENKEAWQSAELLKDVPWEYIQENGKKLRALWAEFARSGSISEDSERPEILKLKKVKN", "values": [
      {"measurement": "Km", "setting": "[1]", "result": "90 ± 20", "unit": "µM"},
      {"measurement": "kcat", "setting": "[1]", "result": "6.85 ± 0.53", "unit": "s⁻¹"},
      {"measurement": "kcat/Km", "setting": "[1]", "result": "77400 ± 11000", "unit": "M⁻¹ s⁻¹"}
    ]},
    {"protein": "BsEst (Bacillus subtilis subsp. subtilis str. 168) (protein, catalytic triad S189-E310-H399; L410-K418 barrier) MTHQIVTTQYGKVKGTTENGVHKWKGIPYAKPPVGQWRFKAPEPPEVWEDVLDATAYGSICPQPSDLLSLSYTELPRQSEDCLYVNVFAPDTPSKNLPVMVWIHGGAFYLGAGSEPLYDGSKLAAQGEVIVVTLNYRLGPFGFLHLSSFNEAYSDNLGLLDQAAALKWVRENISAFGGDPDNVTVFGESAGGMSIAALLAMPAAKGLFQKAIMESGASRTMTKEQAASTSAAFLQVLGINEGQLDKLHTVSAEDLLKAADQLRIAEKENIFQLFFQPALDPKTLPEEPEKAIAEGAASGIPLLIGTTRDEGYLFFTPDSDVHSQETLDAALEYLLGKPLAEKVADLYPRSLESQIHMMTDLLFWRPAVAYASAQSHYAPVWMYRFDWHPKKPPYNKAFHALELPFVFGNLDGLERMAKAEITDEVKQLSHTIQSAWITFAKTGNPSTEAVNWPAYHEETRETLILDSEITIENDPESEKRQKLFPSKGE", "values": [
      {"measurement": "Km", "setting": "[2]", "result": "100 ± 20", "unit": "µM"},
      {"measurement": "kcat", "setting": "[2]", "result": "37.7 ± 1.98", "unit": "s⁻¹"},
      {"measurement": "kcat/Km", "setting": "[2]", "result": "382000 ± 84500", "unit": "M⁻¹ s⁻¹"}
    ]},
    {"protein": "BsEst (Bacillus subtilis subsp. subtilis str. 168; DEL410-418/INS409GG) (protein, catalytic triad S189-E310-H399; L410-K418 barrier) MTHQIVTTQYGKVKGTTENGVHKWKGIPYAKPPVGQWRFKAPEPPEVWEDVLDATAYGSICPQPSDLLSLSYTELPRQSEDCLYVNVFAPDTPSKNLPVMVWIHGGAFYLGAGSEPLYDGSKLAAQGEVIVVTLNYRLGPFGFLHLSSFNEAYSDNLGLLDQAAALKWVRENISAFGGDPDNVTVFGESAGGMSIAALLAMPAAKGLFQKAIMESGASRTMTKEQAASTSAAFLQVLGINEGQLDKLHTVSAEDLLKAADQLRIAEKENIFQLFFQPALDPKTLPEEPEKAIAEGAASGIPLLIGTTRDEGYLFFTPDSDVHSQETLDAALEYLLGKPLAEKVADLYPRSLESQIHMMTDLLFWRPAVAYASAQSHYAPVWMYRFDWHPKKPPYNKAFHALELPFVFGNGGAEITDEVKQLSHTIQSAWITFAKTGNPSTEAVNWPAYHEETRETLILDSEITIENDPESEKRQKLFPSKGE", "values": [
      {"measurement": "Km", "setting": "[2]", "result": "80 ± 30", "unit": "µM"},
      {"measurement": "kcat", "setting": "[2]", "result": "102 ± 5.18", "unit": "s⁻¹"},
      {"measurement": "kcat/Km", "setting": "[2]", "result": "1.35e+06 ± 334000", "unit": "M⁻¹ s⁻¹"}
    ]},
    {"protein": "ChryBHETase (Chryseobacterium sp. PET-29; DEL66-76/INS65GG) (protein, catalytic triad S194-E310-H379; V66-K76 barrier) MTTQQHKKIHTFHTSFGTIPALKGNGVIRAKSIRYARSQRFKKPEPLPYPEHDEIPDKTPVCPQNGGTDVEQFEPDESPQFLTITRPEHFNENEKLPVIVWIHGGSYEIGCGDLPTSDPSVWVKEQHIIVVSVSYRLGLFGFLGGSEERPANLGLYDMIAALQWIKQYIRDFGGDPENITLFGQSSGGDAIAHLMISEETENLFRHVIIHSAPLGFRINRQKMSHEFFLKTDILKDEPDALKMVAGYRTFLPSFRKYGLKTSMPFCTQYGHPPLCQEEETMPNWKQNAKKYDVLIGSNQDETAFYVKTSQTGIYTYLPQRILNKIVRKTTASIYEKPAKAFAENLAAGGGNVYQFVIRSTLKSNNIGASHCVDLPLLFENKEAWQSAELLKDVPWEYIQENGKKLRALWAEFARSGSISEDSERPEILKLKKVKN", "values": [
      {"measurement": "Km", "setting": "[1]", "result": "120 ± 30", "unit": "µM"},
      {"measurement": "kcat", "setting": "[1]", "result": "12.9 ± 1.24", "unit": "s⁻¹"},
      {"measurement": "kcat/Km", "setting": "[1]", "result": "109000 ± 12900", "unit": "M⁻¹ s⁻¹"}
    ]}
  ]
}
